{"source": "patent US20230190922A1", "molecular_target": "human 4-1BB receptor (h4-1-BB) expressed on a genetically engineered Jurkat T cell line (4-1BB Bioassay, Promega) (human) (UniProt Q07011)", "sequence (Q07011 24-255, change not shown)": "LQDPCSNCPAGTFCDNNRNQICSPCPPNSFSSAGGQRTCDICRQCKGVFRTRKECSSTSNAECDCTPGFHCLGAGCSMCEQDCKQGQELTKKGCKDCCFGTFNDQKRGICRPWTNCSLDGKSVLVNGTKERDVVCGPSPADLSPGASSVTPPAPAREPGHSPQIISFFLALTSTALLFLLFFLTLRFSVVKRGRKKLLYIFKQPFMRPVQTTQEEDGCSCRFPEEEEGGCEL", "experiment": "cell-based or functional assay", "details": "scale: relative luciferase expression"}
{"substance": "His-tagged h4-1BBL cross-linked with an Fc (from UniProt P41273 71-254) (ligand)", "values": [{"measurement": "luciferase expression by Jurkat-h4-1BB reporter cells (4-1BB Bioassay, Promega), reference value", "result": 1}]}
